# B1: Phosphatidylinositol 4,5-bisphosphate 3-kinase catalytic subunit delta isoform (Homo sapiens), O00329 (parent)
# chain: MPPGVDCPMEFWTKEENQSVVVDFLLPTGVYLNFPVSRNANLSTIKQLLWHRAQYEPLFHMLSGPEAYVFTCINQTAEQQELEDEQRRLCDVQPFLPVLRLVAREGDRVKKLINSQISLLIGKGLHEFDSLCDPEVNDFRAKMCQFCEEAAARRQQLGWEAWLQYSFPLQLEPSAQTWGPGTLRLPNRALLVNVKFEGSEESFTFQVSTKDVPLALMACALRKKATVFRQPLVEQPEDYTLQVNGRHEYLYGSYPLCQFQYICSCLHSGLTPHLTMVHSSSILAMRDEQSNPAPQVQKPRAKPPPIPAKKPSSVSLWSLEQPFRIELIQGSKVNADERMKLVVQAGLFHGNEMLCKTVSSSEVSVCSEPVWKQRLEFDINICDLPRMARLCFALYAVIEKAKKARSTKKKSKKADCPIAWANLMLFDYKDQLKTGERCLYMWPSVPDEKGELLNPTGTVRSNPNTDSAAALLICLPEVAPHPVYYPALEKILELGRHSECVHVTEEEQLQLREILERRGSGELYEHEKDLVWKLRHEVQEHFPEALARLLLVTKWNKHEDVAQMLYLLCSWPELPVLSALELLDFSFPDCHVGSFAIKSLRKLTDDELFQYLLQLVQVLKYESYLDCELTKFLLDRALANRKIGHFLFWHLRSEMHVPSVALRFGLILEAYCRGSTHHMKVLMKQGEALSKLKALNDFVKLSSQKTPKPQTKELMHLCMRQEAYLEALSHLQSPLDPSTLLAEVCVEQCTFMDSKMKPLWIMYSNEEAGSGGSVGIIFKNGDDLRQDMLTLQMIQLMDVLWKQEGLDLRMTPYGCLPTGDRTGLIEVVLRSDTIANIQLNKSNMAATAAFNKDALLNWLKSKNPGEALDRAIEEFTLSCAGYCVATYVLGIGDRHSDNIMIRESGQLFHIDFGHFLGNFKTKFGINRERVPFILTYDFVHVIQQGKTNNSEKFERFRGYCERAYTILRRHGLLFLHLFALMRAAGLPELSCSKDIQYLKDSLALGKTEEEALKHFRVKFNEALRESWKTKVNWLAHNVSKDNRQ
# Variants of: B1
# Conditions: with p85a_human PIK3R1, P27986
# p85a_human PIK3R1, P27986, sequence (P27986 whole entry): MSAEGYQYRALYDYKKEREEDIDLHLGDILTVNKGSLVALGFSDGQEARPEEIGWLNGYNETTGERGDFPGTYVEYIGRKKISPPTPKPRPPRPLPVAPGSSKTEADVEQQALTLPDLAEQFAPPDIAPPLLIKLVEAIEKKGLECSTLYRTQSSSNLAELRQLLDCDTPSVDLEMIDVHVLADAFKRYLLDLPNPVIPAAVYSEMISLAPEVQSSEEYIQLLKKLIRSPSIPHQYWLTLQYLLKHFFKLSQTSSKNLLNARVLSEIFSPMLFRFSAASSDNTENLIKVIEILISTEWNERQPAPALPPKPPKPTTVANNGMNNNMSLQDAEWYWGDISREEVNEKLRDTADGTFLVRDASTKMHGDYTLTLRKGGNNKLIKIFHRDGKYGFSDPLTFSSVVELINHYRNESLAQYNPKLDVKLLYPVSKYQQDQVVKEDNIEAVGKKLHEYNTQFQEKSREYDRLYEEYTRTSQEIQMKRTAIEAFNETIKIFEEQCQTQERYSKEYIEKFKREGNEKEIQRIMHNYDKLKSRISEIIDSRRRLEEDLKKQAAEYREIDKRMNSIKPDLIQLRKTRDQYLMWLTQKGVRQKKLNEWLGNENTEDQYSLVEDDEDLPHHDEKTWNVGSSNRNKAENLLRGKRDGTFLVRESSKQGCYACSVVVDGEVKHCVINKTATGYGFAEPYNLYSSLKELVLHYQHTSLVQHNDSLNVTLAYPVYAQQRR
row,effect of a mutation on the interaction,Variant
1,with no effect,Y524S
